B1: PLAGL1 (parent)
chain: DPNKMAFGCEECGKKYNTMLGYKR

Variants of: B1
Experiment: protein stability index of a GFP-peptide fusion (GPS, HEK-293T) (PSI 1-6); higher = more stable
Conditions: c terminus: a fixed tail appended
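Also: lentivirally expressed fusions sorted by FACS into six bins by GFP to DsRed ratio, PSI derived from sequencing read proportions per bin multiplied by bin number.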

Protein stability index: each site, then its substitutions
N3: K 3.1 | L 3.54 | M 2.82 | P 2.26 | Q 3.51 | R 2.25 | S 2.87 | T 2.79 | V 2.69 | W 2.23 | Y 2.14
K4: A 2.35 | C 2.45 | D 2.53 | E 3.3 | F 1.61 | G 2.72 | H 2.35 | I 1.95 | L 2.85 | M 2.6 | N 2.55 | P 3.01 | Q 2.61 | R 1.64 | S 2.48 | T 2.61 | V 1.98 | W 2.08 | Y 2.59
M5: A 2.63 | C 3.04 | D 3.54 | E 3.31 | F 2.15 | G 2.81 | H 2.73 | I 2.38 | K 2.26 | L 2.67 | N 2.48 | P 2.2 | Q 2.26 | R 2.36 | S 2.81 | T 2.88 | V 1.93 | W 2.35 | Y 2.33
A6: C 2.35 | D 2.9 | E 3.09 | F 2.32 | G 2.02 | H 2.53 | I 2.46 | K 2.97 | L 3.02 | M 2.75 | N 2.58 | P 2.53 | Q 2.36 | R 2.19 | S 2.33 | T 2.29 | V 2.04 | W 2.9 | Y 2.19
F7: A 3.27 | C 2.22 | D 2.59 | E 3.21 | G 3.17 | H 2.19 | I 2.98 | K 2.31 | M 2.58 | N 2.45 | P 2.57 | Q 3.45 | R 1.92 | S 3.43 | T 2.3 | V 2.43 | W 1.74 | Y 2.53
G8: C 2.19 | D 2.73 | E 2.74 | F 1.68 | H 2.5 | I 2.76 | K 2.14 | L 2.82 | M 1.96 | N 2.74 | P 2.31 | Q 1.98 | S 2.19 | T 3.12 | V 2.92 | W 2.03 | Y 2.21
C9: A 3.38 | D 3.78 | E 3.52 | F 3.32 | G 3.67 | I 3.32 | K 3.6 | L 3.9 | M 3.16 | N 4.01 | P 3.43 | Q 4.16 | R 4.08 | S 4.08 | T 4.07 | V 4.21 | W 3.01 | Y 3.61
E10: A 1.74 | C 1.74 | F 2.4 | G 2.3 | H 2.11 | I 2.51 | K 2.6 | L 1.92 | M 1.96 | N 2.29 | P 2.3 | Q 2.54 | R 1.64 | S 3.23 | T 2.21 | V 2.37 | W 3.11 | Y 1.92
E11: A 2.96 | C 1.44 | D 2.65 | F 1.85 | G 1.77 | H 2.28 | I 2.45 | K 2.49 | L 3.19 | M 2.68 | N 2.52 | P 2.83 | Q 1.99 | R 1.53 | S 2.5 | T 1.9 | V 2.79 | W 1.37 | Y 1.92
C12: A 4.36 | D 4.49 | E 4.78 | F 3.44 | G 4.29 | H 2.98 | I 2.6 | K 4.4 | L 3.3

— the supplement of paper PMC10567573
